# How the values were obtained:
# Cys29 [1] = molecular target: Cys29 (UniProt position 29, FWATWCGTSKM); conditions: reduced active-site thiol(s) implied, not stated; cited from earlier work
# Cys32 = Cys32 (UniProt position 33, FWAEWCGPCKM); conditions: reduced active-site thiol(s) implied, not stated; cited from earlier work
# Cys10 = Cys10 (UniProt position 10, TIYFICTGNSA); test: UV-vis; conditions: poly buffer: 1 mM EDTA, 10 mM Na-borate, 10 mM Na-phosphate, 10 mM Na-citrate (starting pH 8), titrated by stepwise addition of 100 mM HCl; oxidized with arsenate (Cys82-Cys89 disulfide), Cys10 free thiol
# Cys29 [2] = molecular target: Cys29 (UniProt position 29, FWATWCGPCKM); conditions: reduced active-site thiol(s) implied, not stated; cited from earlier work
# Cys89 = Cys89 (UniProt position 89, DADNNCPILPP); test: UV-vis; conditions: poly buffer: 1 mM EDTA, 10 mM Na-borate, 10 mM Na-phosphate, 10 mM Na-citrate, 10 mM CAPS (starting pH 11.4), titrated by stepwise addition of 100 mM HCl; reduced (DTT-treated, DTT removed), free protein
substance,measurement,setting,value
"Thioredoxin (Sa_Trx, Trx1) P31T/C32S (Staphylococcus aureus; P31T;C32S)",pKa,Cys29 [1],6.4
Thioredoxin 1 (Ec_Trx1) (Escherichia coli),pKa,Cys32,7.1
"Arsenate reductase ArsC (plasmid pI258), C15A, oxidized form (Staphylococcus aureus; C15A)",pKa,Cys10,6.8
"Thioredoxin (Sa_Trx), wild type (Staphylococcus aureus)",pKa,Cys29 [2],7.1
"Arsenate reductase ArsC (plasmid pI258), C10S/C15A/C82A triple mutant (Sa_ArsC^Trip) (Staphylococcus aureus; C10S;C15A;C82A)",pKa,Cys89,9.5

# Source: paper PMC2714181
